Laboratory results reported in paper PMC2234252 (The Journal of Cell Biology, 2008).

B1: hZW10 N1 (aa 52–779) (domain or fragment, human, UniProt O43264 52-779, looked up)
chain: SMQSAQGLITQVDKLSEDIDLLKSRIESEVRRDLHVSTGEFTDLKQQLERDSVVLSLLKQLQEFSTAIEEYNCALTEKKYVTGAQRLEEAQKCLKLLKSRKCFDLKILKSLSMELTIQKQNILYHLGEEWQKLIVWKFPPSKDTSSLESYLQTELHLYTEQSHKEEKTPMPPISSVLLAFSVLGELHSKLKSFGQMLLKYILRPLASCPSLHAVIESQPNIVIIRFESIMTNLEYPSPSEVFTKIRLVLEVLQKQLLDLPLDTDLENEKTSTVPLAEMLGDMIWEDLSECLIKNCLVYSIPTNSSKLQQYEEIIQSTEEFENALKEMRFLKGDTTDLLKYARNINSHFANKKCQDVIVAARNLMTSEIHNTVKIIPDSKINVPELPTPDEDNKLEVQKVSNTQYHEVMNLEPENTLDQHSFSLPTCRISESVKKLMELAYQTLLEATTSSDQCAVQLFYSVRNIFHLFHDVVPTYHKENLQKLPQLAAIHHNNCMYIAHHLLTLGHQFRLRLAPILCDGTATFVDLVPGFRRLGTECFLAQMRAQKGELLERLSSARNFSNMDDEENYSAASKAVRQVLHQLKRLGIVWQDVLPVNIYCKAMGTLLNTAISEVIGKITALEDISTEDGDRLYSLCKTVMDEGPQVFAPLSEESKNKKYQEEVPVYVPKWMPFKELMMMLQASLQEIGDRWADGKGPLAAAFSSSEVKALIRALFQNTERRAAALAKIK
B2: hZW10 C7 (aa 1–318) (domain or fragment, human, UniProt O43264 1-318, looked up)
chain: MASFVTEVLAHSGRLEKEDLGTRISRLTRRVEEIKGEVCNMISKKYSEFLPSMQSAQGLITQVDKLSEDIDLLKSRIESEVRRDLHVSTGEFTDLKQQLERDSVVLSLLKQLQEFSTAIEEYNCALTEKKYVTGAQRLEEAQKCLKLLKSRKCFDLKILKSLSMELTIQKQNILYHLGEEWQKLIVWKFPPSKDTSSLESYLQTELHLYTEQSHKEEKTPMPPISSVLLAFSVLGELHSKLKSFGQMLLKYILRPLASCPSLHAVIESQPNIVIIRFESIMTNLEYPSPSEVFTKIRLVLEVLQKQLLDLPLDTDLEN
B3: hZW10 C3 (aa 1–560) (domain or fragment, human, UniProt O43264 1-560, looked up)
chain: MASFVTEVLAHSGRLEKEDLGTRISRLTRRVEEIKGEVCNMISKKYSEFLPSMQSAQGLITQVDKLSEDIDLLKSRIESEVRRDLHVSTGEFTDLKQQLERDSVVLSLLKQLQEFSTAIEEYNCALTEKKYVTGAQRLEEAQKCLKLLKSRKCFDLKILKSLSMELTIQKQNILYHLGEEWQKLIVWKFPPSKDTSSLESYLQTELHLYTEQSHKEEKTPMPPISSVLLAFSVLGELHSKLKSFGQMLLKYILRPLASCPSLHAVIESQPNIVIIRFESIMTNLEYPSPSEVFTKIRLVLEVLQKQLLDLPLDTDLENEKTSTVPLAEMLGDMIWEDLSECLIKNCLVYSIPTNSSKLQQYEEIIQSTEEFENALKEMRFLKGDTTDLLKYARNINSHFANKKCQDVIVAARNLMTSEIHNTVKIIPDSKINVPELPTPDEDNKLEVQKVSNTQYHEVMNLEPENTLDQHSFSLPTCRISESVKKLMELAYQTLLEATTSSDQCAVQLFYSVRNIFHLFHDVVPTYHKENLQKLPQLAAIHHNNCMYIAHHLLTLGHQFR
B4: hZW10 C6 (aa 1–356) (domain or fragment, human, UniProt O43264 1-356, looked up)
chain: MASFVTEVLAHSGRLEKEDLGTRISRLTRRVEEIKGEVCNMISKKYSEFLPSMQSAQGLITQVDKLSEDIDLLKSRIESEVRRDLHVSTGEFTDLKQQLERDSVVLSLLKQLQEFSTAIEEYNCALTEKKYVTGAQRLEEAQKCLKLLKSRKCFDLKILKSLSMELTIQKQNILYHLGEEWQKLIVWKFPPSKDTSSLESYLQTELHLYTEQSHKEEKTPMPPISSVLLAFSVLGELHSKLKSFGQMLLKYILRPLASCPSLHAVIESQPNIVIIRFESIMTNLEYPSPSEVFTKIRLVLEVLQKQLLDLPLDTDLENEKTSTVPLAEMLGDMIWEDLSECLIKNCLVYSIPTNSS
B5: hZW10 C8 (aa 1–224) (domain or fragment, human, UniProt O43264 1-224, looked up)
chain: MASFVTEVLAHSGRLEKEDLGTRISRLTRRVEEIKGEVCNMISKKYSEFLPSMQSAQGLITQVDKLSEDIDLLKSRIESEVRRDLHVSTGEFTDLKQQLERDSVVLSLLKQLQEFSTAIEEYNCALTEKKYVTGAQRLEEAQKCLKLLKSRKCFDLKILKSLSMELTIQKQNILYHLGEEWQKLIVWKFPPSKDTSSLESYLQTELHLYTEQSHKEEKTPMPPI
B6: hZW10 full length (aa 1–779) (natural protein, human, UniProt O43264 1-779, looked up)
chain: MASFVTEVLAHSGRLEKEDLGTRISRLTRRVEEIKGEVCNMISKKYSEFLPSMQSAQGLITQVDKLSEDIDLLKSRIESEVRRDLHVSTGEFTDLKQQLERDSVVLSLLKQLQEFSTAIEEYNCALTEKKYVTGAQRLEEAQKCLKLLKSRKCFDLKILKSLSMELTIQKQNILYHLGEEWQKLIVWKFPPSKDTSSLESYLQTELHLYTEQSHKEEKTPMPPISSVLLAFSVLGELHSKLKSFGQMLLKYILRPLASCPSLHAVIESQPNIVIIRFESIMTNLEYPSPSEVFTKIRLVLEVLQKQLLDLPLDTDLENEKTSTVPLAEMLGDMIWEDLSECLIKNCLVYSIPTNSSKLQQYEEIIQSTEEFENALKEMRFLKGDTTDLLKYARNINSHFANKKCQDVIVAARNLMTSEIHNTVKIIPDSKINVPELPTPDEDNKLEVQKVSNTQYHEVMNLEPENTLDQHSFSLPTCRISESVKKLMELAYQTLLEATTSSDQCAVQLFYSVRNIFHLFHDVVPTYHKENLQKLPQLAAIHHNNCMYIAHHLLTLGHQFRLRLAPILCDGTATFVDLVPGFRRLGTECFLAQMRAQKGELLERLSSARNFSNMDDEENYSAASKAVRQVLHQLKRLGIVWQDVLPVNIYCKAMGTLLNTAISEVIGKITALEDISTEDGDRLYSLCKTVMDEGPQVFAPLSEESKNKKYQEEVPVYVPKWMPFKELMMMLQASLQEIGDRWADGKGPLAAAFSSSEVKALIRALFQNTERRAAALAKIK
B7: hZW10 C9 (aa 1–139) (domain or fragment, human, UniProt O43264 1-139, looked up)
chain: MASFVTEVLAHSGRLEKEDLGTRISRLTRRVEEIKGEVCNMISKKYSEFLPSMQSAQGLITQVDKLSEDIDLLKSRIESEVRRDLHVSTGEFTDLKQQLERDSVVLSLLKQLQEFSTAIEEYNCALTEKKYVTGAQRLE
B8: hZW10 C1 (aa 1–772) (domain or fragment, human, UniProt O43264 1-772, looked up)
chain: MASFVTEVLAHSGRLEKEDLGTRISRLTRRVEEIKGEVCNMISKKYSEFLPSMQSAQGLITQVDKLSEDIDLLKSRIESEVRRDLHVSTGEFTDLKQQLERDSVVLSLLKQLQEFSTAIEEYNCALTEKKYVTGAQRLEEAQKCLKLLKSRKCFDLKILKSLSMELTIQKQNILYHLGEEWQKLIVWKFPPSKDTSSLESYLQTELHLYTEQSHKEEKTPMPPISSVLLAFSVLGELHSKLKSFGQMLLKYILRPLASCPSLHAVIESQPNIVIIRFESIMTNLEYPSPSEVFTKIRLVLEVLQKQLLDLPLDTDLENEKTSTVPLAEMLGDMIWEDLSECLIKNCLVYSIPTNSSKLQQYEEIIQSTEEFENALKEMRFLKGDTTDLLKYARNINSHFANKKCQDVIVAARNLMTSEIHNTVKIIPDSKINVPELPTPDEDNKLEVQKVSNTQYHEVMNLEPENTLDQHSFSLPTCRISESVKKLMELAYQTLLEATTSSDQCAVQLFYSVRNIFHLFHDVVPTYHKENLQKLPQLAAIHHNNCMYIAHHLLTLGHQFRLRLAPILCDGTATFVDLVPGFRRLGTECFLAQMRAQKGELLERLSSARNFSNMDDEENYSAASKAVRQVLHQLKRLGIVWQDVLPVNIYCKAMGTLLNTAISEVIGKITALEDISTEDGDRLYSLCKTVMDEGPQVFAPLSEESKNKKYQEEVPVYVPKWMPFKELMMMLQASLQEIGDRWADGKGPLAAAFSSSEVKALIRALFQNTERRA
B9: hZW10 C5 (aa 1–410) (domain or fragment, human, UniProt O43264 1-410, looked up)
chain: MASFVTEVLAHSGRLEKEDLGTRISRLTRRVEEIKGEVCNMISKKYSEFLPSMQSAQGLITQVDKLSEDIDLLKSRIESEVRRDLHVSTGEFTDLKQQLERDSVVLSLLKQLQEFSTAIEEYNCALTEKKYVTGAQRLEEAQKCLKLLKSRKCFDLKILKSLSMELTIQKQNILYHLGEEWQKLIVWKFPPSKDTSSLESYLQTELHLYTEQSHKEEKTPMPPISSVLLAFSVLGELHSKLKSFGQMLLKYILRPLASCPSLHAVIESQPNIVIIRFESIMTNLEYPSPSEVFTKIRLVLEVLQKQLLDLPLDTDLENEKTSTVPLAEMLGDMIWEDLSECLIKNCLVYSIPTNSSKLQQYEEIIQSTEEFENALKEMRFLKGDTTDLLKYARNINSHFANKKCQDVIVA
B10: hZW10 C2 (aa 1–698) (domain or fragment, human, UniProt O43264 1-698, looked up)
chain: MASFVTEVLAHSGRLEKEDLGTRISRLTRRVEEIKGEVCNMISKKYSEFLPSMQSAQGLITQVDKLSEDIDLLKSRIESEVRRDLHVSTGEFTDLKQQLERDSVVLSLLKQLQEFSTAIEEYNCALTEKKYVTGAQRLEEAQKCLKLLKSRKCFDLKILKSLSMELTIQKQNILYHLGEEWQKLIVWKFPPSKDTSSLESYLQTELHLYTEQSHKEEKTPMPPISSVLLAFSVLGELHSKLKSFGQMLLKYILRPLASCPSLHAVIESQPNIVIIRFESIMTNLEYPSPSEVFTKIRLVLEVLQKQLLDLPLDTDLENEKTSTVPLAEMLGDMIWEDLSECLIKNCLVYSIPTNSSKLQQYEEIIQSTEEFENALKEMRFLKGDTTDLLKYARNINSHFANKKCQDVIVAARNLMTSEIHNTVKIIPDSKINVPELPTPDEDNKLEVQKVSNTQYHEVMNLEPENTLDQHSFSLPTCRISESVKKLMELAYQTLLEATTSSDQCAVQLFYSVRNIFHLFHDVVPTYHKENLQKLPQLAAIHHNNCMYIAHHLLTLGHQFRLRLAPILCDGTATFVDLVPGFRRLGTECFLAQMRAQKGELLERLSSARNFSNMDDEENYSAASKAVRQVLHQLKRLGIVWQDVLPVNIYCKAMGTLLNTAISEVIGKITALEDISTEDGDRLYSLCKTVMDEGPQVFA
B11: hZW10 C4 (aa 1–496) (domain or fragment, human, UniProt O43264 1-496, looked up)
chain: MASFVTEVLAHSGRLEKEDLGTRISRLTRRVEEIKGEVCNMISKKYSEFLPSMQSAQGLITQVDKLSEDIDLLKSRIESEVRRDLHVSTGEFTDLKQQLERDSVVLSLLKQLQEFSTAIEEYNCALTEKKYVTGAQRLEEAQKCLKLLKSRKCFDLKILKSLSMELTIQKQNILYHLGEEWQKLIVWKFPPSKDTSSLESYLQTELHLYTEQSHKEEKTPMPPISSVLLAFSVLGELHSKLKSFGQMLLKYILRPLASCPSLHAVIESQPNIVIIRFESIMTNLEYPSPSEVFTKIRLVLEVLQKQLLDLPLDTDLENEKTSTVPLAEMLGDMIWEDLSECLIKNCLVYSIPTNSSKLQQYEEIIQSTEEFENALKEMRFLKGDTTDLLKYARNINSHFANKKCQDVIVAARNLMTSEIHNTVKIIPDSKINVPELPTPDEDNKLEVQKVSNTQYHEVMNLEPENTLDQHSFSLPTCRISESVKKLMELAYQTLLE

The binders below were run against T1, hZwint-1 (human, UniProt O95229 1-277) (assay: two-hybrid).
T1 sequence (looked up): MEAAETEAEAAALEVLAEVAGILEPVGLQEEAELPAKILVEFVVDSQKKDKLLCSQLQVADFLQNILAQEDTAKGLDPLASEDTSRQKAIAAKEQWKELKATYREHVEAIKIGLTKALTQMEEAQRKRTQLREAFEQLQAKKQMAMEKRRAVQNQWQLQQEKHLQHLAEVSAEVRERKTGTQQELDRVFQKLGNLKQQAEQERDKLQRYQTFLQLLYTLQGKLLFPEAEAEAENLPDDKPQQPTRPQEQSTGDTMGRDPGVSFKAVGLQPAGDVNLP
With B1 the β-galactosidase assay was 2.14. In the case of B2, the β-galactosidase assay is reported as 132. Work on B3 yielded a β-galactosidase assay of 2.5. B4 was tested, and the β-galactosidase assay was 275. With B5 the β-galactosidase assay was 233. In the case of B6, the β-galactosidase assay is reported as 187. B7 was tested, and the β-galactosidase assay was 445. Work on B8 yielded a β-galactosidase assay of 3.4. In the case of B9, the β-galactosidase assay is reported as 26.6. Binder B10 has a β-galactosidase assay of 2.6. B11 showed a β-galactosidase assay of 1.
